B3: CURVATURE THYLAKOID1A (CURT1A) of Arabidopsis thaliana, endogenous protein in thylakoid membranes (other)
chain: ASSEETSSIDTNELITDLKEKWDGLENKSTVLIYGGGAIVAVWLSSIVVGAINSVPLLPKVMELVGLGYTGWFVYRYLLFKSSRKELAEDIESLKKKIAGSE
notes: Thylakoid membrane protein as found in plant thylakoids; also called At4g01150

The target of data set [1] is B3. Description: 2D-BN/SDS-PAGE of thylakoid multiprotein complexes (Fig. 5b).
Data set [2] deals with the molecule itself. Description: quantification of CURT1A crosslinking products from thylakoids of WT and CURT1A-cmyc overexpressors.
Data set [3] concerns the molecule itself. Description: chemical crosslinking (BS3) of thylakoid proteins, SDS-PAGE and immunoblot, WT against curt1 mutants.

B1: CURVATURE THYLAKOID1C (CURT1C) of Arabidopsis thaliana, endogenous protein in thylakoid membranes (other)
chain: ASGESSDSSTDLDVVSTIQNVWDKSEDRLGLIGLGFAGIVALWASLNLITAIDKLPVISSGFELVGILFSTWFTYRYLLFKPDRQELSKIVKKSVADILGQ
notes: Thylakoid membrane protein as found in plant thylakoids; also called At1g52220
On to B1, for which the binding result in data set [1] is listed as “binds”.

B2: CURT1A with a C-terminal cmyc tag, expressed in curt1a-2 or WT plants (other)
chain: ASSEETSSIDTNELITDLKEKWDGLENKSTVLIYGGGAIVAVWLSSIVVGAINSVPLLPKVMELVGLGYTGWFVYRYLLFKSSRKELAEDIESLKKKIAGSE
notes: Coding region under the 35S promoter; also called CURT1A-cmyc; cmyc-tagged CURT1A; not shown: C-terminal cmyc tag from vector pPCV812deltaNotI-Lola
On to B2, for which the binding result in data set [2] is reported as “binds”. With B3, the binding result in data set [3] was “binds”.
